# Measured values from US20080064052A1, “Crystal of a Receptor-Ligand Complex and methods of use” (priority 2006, published 2008).
# T1: human EphB4 ephrin-binding domain, EphB4 (17-196) (human, UniProt P54760 17-196)
# T1 sequence: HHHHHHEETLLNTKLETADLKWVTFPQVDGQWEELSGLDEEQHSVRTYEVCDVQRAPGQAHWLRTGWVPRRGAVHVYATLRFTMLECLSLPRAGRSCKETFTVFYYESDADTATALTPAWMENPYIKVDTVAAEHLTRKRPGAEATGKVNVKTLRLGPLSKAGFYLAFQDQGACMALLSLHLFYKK
# T2: mouse EphB4 ectodomain Fc fusion protein (mouse EphB4-Fc-His, R&D Systems) (mouse, UniProt P54761 16-539)
# T2 construct: extracellular domain; also called murine EphB4; not shown: Fc part of a bought fusion protein; His tag of the bought protein
# T2 sequence (looked up): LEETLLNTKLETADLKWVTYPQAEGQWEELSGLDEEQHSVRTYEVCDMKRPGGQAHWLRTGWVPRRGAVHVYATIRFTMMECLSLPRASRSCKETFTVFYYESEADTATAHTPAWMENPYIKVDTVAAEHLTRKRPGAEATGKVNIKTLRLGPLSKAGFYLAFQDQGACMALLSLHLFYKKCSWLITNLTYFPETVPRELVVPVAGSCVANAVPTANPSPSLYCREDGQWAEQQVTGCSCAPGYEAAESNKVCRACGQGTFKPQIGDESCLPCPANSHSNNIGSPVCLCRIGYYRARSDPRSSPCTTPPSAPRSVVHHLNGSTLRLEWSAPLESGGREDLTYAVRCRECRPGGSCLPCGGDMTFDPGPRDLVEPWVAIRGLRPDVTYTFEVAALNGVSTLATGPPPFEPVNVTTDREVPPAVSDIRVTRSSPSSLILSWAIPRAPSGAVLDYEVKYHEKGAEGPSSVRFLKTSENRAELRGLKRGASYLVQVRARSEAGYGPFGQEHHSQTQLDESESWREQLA
# Experiments:
# [1] = target: T1, human EphB4 ephrin-binding domain, …; assay: ITC at 25 °C
# Procedure: (§1) Experiments were performed at 25° C. in 50 mM Tris pH 7.8, 150 mM NaCl, 1 mM CaCl₂.
# (§2) Isothermal titration calorimetry and ELISA experiments: EphB4and ephrin-B2 were either dialyzed or buffer exchanged into 50 mM Tris-Cl (pH 7.8 at 25° C.), 150 mM NaCl, 1 mM CaCl₂, prior to use in calorimetry experiments. Peptides were dissolved into the same buffer used for the dialysis of EphB4. The concentration of EphB4, ephrin-B2 and the peptides was determined by measuring the A₂₈₀ and using the theoretical-extinction coefficient (Gill and von Hippel, 1989). ITC experiments were performed with a Microcal MCS ITC at 25° C. Following an initial injection of 2 μl, titrations were performed by making 20 13 μl injections of peptide into EphB4 in the sample cell to produce an approximate final 2:1 ratio of injectant to sample in the cell. […] Corrections for heats of dilution for the peptides and ephrin-B2 were determined by performing titrations of peptide or ephrin-B2 solutions into buffer. […] Titration data were analyzed using Origin ITC software (Version 5.0, Microcal Software Inc.) and curves were fit to a single binding site model (Wiseman et al., 1989). […] A lower limit for the binding constant was determined by performing a titration in which the sample cell contained 30 μM EphB4 and the injection syringe contained a 1.45 mM solution of the peptide, producing a final ratio of peptide to EphB4 of 10:1.
# [2] = target: T1, human EphB4 ephrin-binding domain, …; assay: ITC at 25 °C, peptide injected into human EphB4 (17-196)
# Procedure: Isothermal titration calorimetry and ELISA experiments: EphB4and ephrin-B2 were either dialyzed or buffer exchanged into 50 mM Tris-Cl (pH 7.8 at 25° C.), 150 mM NaCl, 1 mM CaCl₂, prior to use in calorimetry experiments. Peptides were dissolved into the same buffer used for the dialysis of EphB4. The concentration of EphB4, ephrin-B2 and the peptides was determined by measuring the A₂₈₀ and using the theoretical-extinction coefficient (Gill and von Hippel, 1989). ITC experiments were performed with a Microcal MCS ITC at 25° C. Following an initial injection of 2 μl, titrations were performed by making 20 13 μl injections of peptide into EphB4 in the sample cell to produce an approximate final 2:1 ratio of injectant to sample in the cell. For most titrations the sample cell contained 15 μM EphB4 and the injection syringe contained a 200 μM solution of the peptide. Titrations with ephrin-B2 contained 13 μM EphB4 in the sample cell and 290 μM ephrin-B2 in the syringe. Prior to loading the sample cell, EphB4 was centrifuged at 18,000 g for 5 min at 4° C. to remove aggregates and degassed for 5 minutes at room temperature. Corrections for heats of dilution for the peptides and ephrin-B2 were determined by performing titrations of peptide or ephrin-B2 solutions into buffer. Dilution data were fit to a line and subtracted from the corresponding titration data. Titration data were analyzed using Origin ITC software (Version 5.0, Microcal Software Inc.) and curves were fit to a single binding site model (Wiseman et al., 1989). […] A lower limit for the binding constant was determined by performing a titration in which the sample cell contained 30 μM EphB4 and the injection syringe contained a 1.45 mM solution of the peptide, producing a final ratio of peptide to EphB4 of 10:1. The data was fit assuming a stoichiometry of 1 and at least 60% saturation of binding at the final peptide concentration (Turnbull and Daranas, 2003).
# [3] = target: T2, mouse EphB4 ectodomain Fc fusion …; assay: competition ELISA: inhibition of mouse ephrin-B2 AP binding to immobilized mouse EphB4 ectodomain Fc
# Procedure: (§3) The ability of peptides to compete the binding of mouse ephrin-B2 alkaline phosphatase to immobilized mouse EphB4-Fc-His (R&D Systems) was measured by ELISA as previously described (Koolpe et al., 2005).
# [4] = target: T1, human EphB4 ephrin-binding domain, …; assay: ITC at 25 °C, 1.45 mM peptide injected into 30 µM human EphB4 (17-196)
# Procedure: as §1, §2
# [5] = target: T2, mouse EphB4 ectodomain Fc fusion …; assay: competition ELISA: inhibition of mouse ephrin-B2 AP binding to immobilized mouse EphB4 ectodomain Fc; text sentence that cites Table 1A; same ELISA
# Procedure: as §3
Binder,fold reduction in affinity (against the peptides that keep Tyr-P3) [1],Kd [2],TΔS [2],ΔG [2],ΔH [2],IC50 [3],ΔH [4],IC50 [5]
"LFSPNGPIARAW (TNYL-RAW without Thr-P1, Asn-P2 and Tyr-P3) [LFSP-RAW peptide (LFSPNGPIARAW)]",40 fold,3500 nM,2.1 kcal/mol,-7.4 kcal/mol,-5.3 kcal/mol,~15000 nM,–,–
TNYLFSPNGPIA [TNYL peptide (TNYLFSPNGPIA)],–,–,–,–,–,150000 nM,-9.6 kcal/mol,–
"TNYLFSPNGPIARAW (Synthetic 15-mer (Biopeptide, Inc.); Peptide positions are printed as P1 to P15; also called antagonistic peptide) [TNYL-RAW peptide (TNYLFSPNGPIARAW)]",–,71 nM,-4.9 kcal/mol,-9.8 kcal/mol,-14.7 kcal/mol,15 nM,–,~15 nM
